Measured values as given in patent US20230365709A1 (published 2023).
One block for each binder: values may come before it.

Legend:
[1] = biological target: T1, recombinant human CD64 expressed on the surface of CHO cells (human, UniProt P12314 16-374); assay: flow cytometry, receptor-expressing CHO cells
T1 construct: whole, on cells; also called huCD64
Method: (§1) The CHO cells were incubated with serial dilutions of the indicated trispecific constructs and control constructs at 37° C., and cell surface bound antibodies were detected by FITC-conjugated goat anti-human IgG Fc and flow cytometric analysis. Measured median fluorescence intensity values were used to calculate apparent affinities (KD) by non-linear regression.

[2] = biological target: T2, recombinant human CD32A expressed on the surface of CHO cells (human, UniProt P12318 34-317); assay: flow cytometry, CHO-huCD32A cells, apparent KD; SD n.a.
T2 construct: whole, on cells; also called huCD32A
T2 sequence (looked up): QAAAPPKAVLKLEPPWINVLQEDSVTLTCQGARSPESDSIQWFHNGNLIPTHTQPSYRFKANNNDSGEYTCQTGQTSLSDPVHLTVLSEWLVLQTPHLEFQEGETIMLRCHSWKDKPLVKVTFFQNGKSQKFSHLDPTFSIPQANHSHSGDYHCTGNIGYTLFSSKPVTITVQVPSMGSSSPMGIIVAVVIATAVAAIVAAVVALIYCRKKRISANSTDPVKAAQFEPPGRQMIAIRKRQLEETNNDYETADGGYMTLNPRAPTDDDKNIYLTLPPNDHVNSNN
Method: as §1

[3] = biological target: T1, recombinant human CD64 expressed on the …; assay: flow cytometry, CHO-huCD64 cells, apparent KD; SD 13.7
Method: as §1

[4] = biological target: T2, recombinant human CD32A expressed on …; assay: flow cytometry, CHO-huCD32A cells, apparent KD; SD 719.6
Method: as §1

[5] = biological target: T1, recombinant human CD64 expressed on the …; assay: flow cytometry, CHO-huCD64 cells, apparent KD; SD 8.7
Method: as §1

[6] = biological target: T2, recombinant human CD32A expressed on …; assay: flow cytometry, CHO-huCD32A cells, apparent KD; SD 118.9
Method: as §1

[7] = biological target: T1, recombinant human CD64 expressed on the …; assay: flow cytometry, CHO-huCD64 cells, apparent KD; SD 7.0
Method: as §1

[8] = biological target: T3, recombinant human NKp46 expressed on the surface of CHO cells (human, UniProt O76036 22-304); assay: flow cytometry, CHO-huNKp46 cells, apparent KD; SD 6.2
T3 construct: whole, on cells; also called huNKp46; CD355
Method: as §1

T1 sequence (P12314 16-374): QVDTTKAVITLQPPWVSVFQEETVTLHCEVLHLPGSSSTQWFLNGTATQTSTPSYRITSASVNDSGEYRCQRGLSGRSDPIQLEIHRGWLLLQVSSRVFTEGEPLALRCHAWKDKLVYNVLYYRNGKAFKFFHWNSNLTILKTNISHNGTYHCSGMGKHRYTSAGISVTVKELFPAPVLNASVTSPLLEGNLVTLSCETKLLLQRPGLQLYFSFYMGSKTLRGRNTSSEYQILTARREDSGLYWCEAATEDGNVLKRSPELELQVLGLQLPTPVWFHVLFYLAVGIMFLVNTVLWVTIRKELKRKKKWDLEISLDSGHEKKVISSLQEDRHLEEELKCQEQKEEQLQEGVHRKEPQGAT
T3 sequence (O76036 22-304): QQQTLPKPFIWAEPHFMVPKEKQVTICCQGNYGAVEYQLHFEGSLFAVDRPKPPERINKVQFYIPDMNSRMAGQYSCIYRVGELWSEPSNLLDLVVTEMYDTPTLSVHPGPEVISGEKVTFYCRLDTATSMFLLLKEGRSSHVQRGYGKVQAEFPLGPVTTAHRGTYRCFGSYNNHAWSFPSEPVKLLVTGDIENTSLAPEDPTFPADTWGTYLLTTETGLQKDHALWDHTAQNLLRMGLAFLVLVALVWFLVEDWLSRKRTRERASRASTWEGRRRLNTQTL

binding result [1]: binds
B1: 2Fab-1scFv-AFc-1 (bispecific antibody, human IgG1, kappa)
heavy: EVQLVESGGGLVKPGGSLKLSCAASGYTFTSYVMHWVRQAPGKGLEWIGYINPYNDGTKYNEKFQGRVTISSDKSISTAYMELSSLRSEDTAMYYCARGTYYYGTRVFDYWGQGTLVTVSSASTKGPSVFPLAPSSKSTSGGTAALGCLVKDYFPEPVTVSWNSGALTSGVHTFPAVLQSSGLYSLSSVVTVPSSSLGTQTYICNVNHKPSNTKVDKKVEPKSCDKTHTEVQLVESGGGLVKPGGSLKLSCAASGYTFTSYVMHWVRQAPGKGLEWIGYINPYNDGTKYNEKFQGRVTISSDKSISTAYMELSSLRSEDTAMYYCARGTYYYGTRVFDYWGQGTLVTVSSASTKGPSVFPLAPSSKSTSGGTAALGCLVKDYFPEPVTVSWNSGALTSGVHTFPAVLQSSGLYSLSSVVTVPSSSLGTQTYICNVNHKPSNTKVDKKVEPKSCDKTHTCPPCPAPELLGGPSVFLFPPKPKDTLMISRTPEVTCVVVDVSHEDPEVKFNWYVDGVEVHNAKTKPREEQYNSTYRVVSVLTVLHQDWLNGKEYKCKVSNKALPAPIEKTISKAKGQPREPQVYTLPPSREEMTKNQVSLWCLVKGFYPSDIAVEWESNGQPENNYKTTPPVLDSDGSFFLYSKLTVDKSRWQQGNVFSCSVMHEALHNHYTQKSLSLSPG
light: DIVMTQSPATLSLSPGERATLSCRSSKSLQNVNGNTYLYWFQQKPGQSPQLLIYRMSNLNSGVPDRFSGSGSGTEFTLTISSLEPEDFAVYYCMQHLEYPITFGAGTKLEIKRTVAAPSVFIFPPSDEQLKSGTASVVCLLNNFYPREAKVQWKVDNALQSGNSQESVTEQDSKDSTYSLSSTLTLSKADYEKHKVYACEVTHQGLSSPVTKSFNRGEC
chain: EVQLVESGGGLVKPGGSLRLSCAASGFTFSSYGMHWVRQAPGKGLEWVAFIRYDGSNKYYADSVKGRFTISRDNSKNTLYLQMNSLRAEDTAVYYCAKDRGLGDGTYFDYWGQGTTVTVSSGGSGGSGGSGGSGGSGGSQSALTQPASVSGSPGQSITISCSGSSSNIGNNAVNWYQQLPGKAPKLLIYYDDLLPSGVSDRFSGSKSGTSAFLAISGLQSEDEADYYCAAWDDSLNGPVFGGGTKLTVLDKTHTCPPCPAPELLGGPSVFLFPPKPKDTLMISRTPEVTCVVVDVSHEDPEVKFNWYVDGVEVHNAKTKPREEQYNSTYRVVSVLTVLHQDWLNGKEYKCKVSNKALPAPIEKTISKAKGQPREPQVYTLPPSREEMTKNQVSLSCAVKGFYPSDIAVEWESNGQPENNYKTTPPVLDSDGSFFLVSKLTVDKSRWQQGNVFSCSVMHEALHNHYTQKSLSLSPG
notes: CD19, wt Fc, NKG2D(KYK-2.0)

Kd [2]: 4090 nM
B2: IG-scDb-1 (other)
heavy: EVQLVESGGGLVKPGGSLKLSCAASGYTFTSYVMHWVRQAPGKGLEWIGYINPYNDGTKYNEKFQGRVTISSDKSISTAYMELSSLRSEDTAMYYCARGTYYYGTRVFDYWGQGTLVTVSSASTKGPSVFPLAPSSKSTSGGTAALGCLVKDYFPEPVTVSWNSGALTSGVHTFPAVLQSSGLYSLSSVVTVPSSSLGTQTYICNVNHKPSNTKVDKKVEPKSCDKTHTCPPCPAPEFEGGPSVFLFPPKPKDTLMISRTPEVTCVVVAVSHEDPEVKFNWYVDGVEVHNAKTKPREEQYGSTYRVVSVLTVLHQDWLNGKEYKCKVSNKALPAPIEKTISKAKGQPREPQVYTLPPSREEMTKNQVSLTCLVKGFYPSDIAVEWESNGQPENNYKTTPPVLDSDGSFFLYSKLTVDKSRWQQGNVFSCSVMHEALHNHYTQKSLSLSPGGGGGSGGGGSSYELTQPLSVSVALGQTARITCGGHNIGSKNVHWYQQKPGQAPVLVIYQDNKRPSGIPERFSGSNSGNTATLTISRAQAGDEADYYCQVWDNYNVLFGCGTKLTVLGGSGGSQVQLVESGGGLVKPGGSLRLSCAASGFTFSSYGMHWVRQAPGKGLEWVAFIRYDGSNKYYADSVKGRFTISRDNSKNTLYLQMNSLRAEDTAVYYCAKDRGLGDGTYFDYWGQGTTVTVSSGGSGGSGGSGGSGGSGGSQSALTQPASVSGSPGQSITISCSGSSSNIGNNAVNWYQQLPGKAPKLLIYYDDLLPSGVSDRFSGSKSGTSAFLAISGLQSEDEADYYCAAWDDSLNGPVFGGGTKLTVLGGSGGSQVQLVQSGAEVKKPGASVKVSCKASGYTFTSYYMHWVRQAPGQCLEWMGAIEPTYGSTSYAQKFQGRVTMTRDTSTSTVYMELSSLRSEDTAVYYCARGSAYYYDFADYWGQGTLVTVSS
light: DIVMTQSPATLSLSPGERATLSCRSSKSLQNVNGNTYLYWFQQKPGQSPQLLIYRMSNLNSGVPDRFSGSGSGTEFTLTISSLEPEDFAVYYCMQHLEYPITFGAGTKLEIKRTVAAPSVFIFPPSDEQLKSGTASVVCLLNNFYPREAKVQWKVDNALQSGNSQESVTEQDSKDSTYSLSSTLTLSKADYEKHKVYACEVTHQGLSSPVTKSFNRGEC
notes: trispecific construct: target CD19, effector domains CD16A(P2C47var50) and NKG2D(KYK-2.0)

binding result [1]: binds
B3: 2Fab-1scFv-AFc-4 (bispecific antibody, human IgG1, kappa)
heavy: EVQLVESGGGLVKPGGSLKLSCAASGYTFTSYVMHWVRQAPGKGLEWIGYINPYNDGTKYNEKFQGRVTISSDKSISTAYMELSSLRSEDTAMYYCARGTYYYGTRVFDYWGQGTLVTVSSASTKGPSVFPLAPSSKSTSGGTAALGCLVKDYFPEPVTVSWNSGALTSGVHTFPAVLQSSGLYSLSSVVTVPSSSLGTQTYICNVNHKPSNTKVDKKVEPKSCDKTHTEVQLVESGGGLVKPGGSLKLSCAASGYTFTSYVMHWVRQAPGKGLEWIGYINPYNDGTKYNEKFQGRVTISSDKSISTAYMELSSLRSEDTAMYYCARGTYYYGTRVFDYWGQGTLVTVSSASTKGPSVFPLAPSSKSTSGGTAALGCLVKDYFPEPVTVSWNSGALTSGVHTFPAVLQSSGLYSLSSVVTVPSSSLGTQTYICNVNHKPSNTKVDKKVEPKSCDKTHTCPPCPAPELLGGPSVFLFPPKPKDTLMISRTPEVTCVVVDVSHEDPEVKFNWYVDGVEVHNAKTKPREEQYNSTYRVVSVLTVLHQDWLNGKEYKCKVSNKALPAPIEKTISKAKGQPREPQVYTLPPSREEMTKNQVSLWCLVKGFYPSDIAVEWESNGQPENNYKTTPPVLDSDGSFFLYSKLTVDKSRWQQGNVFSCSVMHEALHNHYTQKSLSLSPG
light: DIVMTQSPATLSLSPGERATLSCRSSKSLQNVNGNTYLYWFQQKPGQSPQLLIYRMSNLNSGVPDRFSGSGSGTEFTLTISSLEPEDFAVYYCMQHLEYPITFGAGTKLEIKRTVAAPSVFIFPPSDEQLKSGTASVVCLLNNFYPREAKVQWKVDNALQSGNSQESVTEQDSKDSTYSLSSTLTLSKADYEKHKVYACEVTHQGLSSPVTKSFNRGEC
chain: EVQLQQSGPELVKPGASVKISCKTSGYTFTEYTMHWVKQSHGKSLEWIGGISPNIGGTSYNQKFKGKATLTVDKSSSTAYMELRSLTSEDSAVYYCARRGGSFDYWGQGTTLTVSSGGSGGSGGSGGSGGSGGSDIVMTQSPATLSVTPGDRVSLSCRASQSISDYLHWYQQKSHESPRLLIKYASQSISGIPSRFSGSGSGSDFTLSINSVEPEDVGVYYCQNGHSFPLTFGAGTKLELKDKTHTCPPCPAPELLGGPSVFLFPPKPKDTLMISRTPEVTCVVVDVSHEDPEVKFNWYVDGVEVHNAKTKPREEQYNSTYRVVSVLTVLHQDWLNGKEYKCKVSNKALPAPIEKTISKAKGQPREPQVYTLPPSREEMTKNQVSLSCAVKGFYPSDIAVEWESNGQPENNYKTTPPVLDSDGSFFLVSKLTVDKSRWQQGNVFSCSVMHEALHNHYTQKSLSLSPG
notes: CD19, wt Fc, NKp46(NKp46-3)

Kd [3]: 38.1 nM
Kd [4]: 682 nM
B4: 2Fab-1scFv-AFc-3 (bispecific antibody, human IgG1, kappa)
heavy: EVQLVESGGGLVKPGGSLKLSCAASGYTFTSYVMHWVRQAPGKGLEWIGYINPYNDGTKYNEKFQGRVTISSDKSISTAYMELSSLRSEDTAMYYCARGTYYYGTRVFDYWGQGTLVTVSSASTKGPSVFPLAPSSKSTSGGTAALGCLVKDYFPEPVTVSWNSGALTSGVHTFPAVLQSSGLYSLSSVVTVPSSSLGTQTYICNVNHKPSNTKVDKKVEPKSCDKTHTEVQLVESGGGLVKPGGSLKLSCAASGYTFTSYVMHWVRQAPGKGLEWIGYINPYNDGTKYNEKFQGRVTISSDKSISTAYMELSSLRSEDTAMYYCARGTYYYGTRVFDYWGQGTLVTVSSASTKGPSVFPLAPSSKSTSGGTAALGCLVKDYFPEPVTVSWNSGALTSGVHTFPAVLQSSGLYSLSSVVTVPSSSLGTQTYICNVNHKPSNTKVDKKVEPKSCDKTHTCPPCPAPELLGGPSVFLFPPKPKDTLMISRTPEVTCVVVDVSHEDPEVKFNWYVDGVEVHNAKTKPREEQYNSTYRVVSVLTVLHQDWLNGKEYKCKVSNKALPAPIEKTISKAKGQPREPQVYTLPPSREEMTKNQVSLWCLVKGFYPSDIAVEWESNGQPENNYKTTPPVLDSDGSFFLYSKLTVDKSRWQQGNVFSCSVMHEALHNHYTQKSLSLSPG
light: DIVMTQSPATLSLSPGERATLSCRSSKSLQNVNGNTYLYWFQQKPGQSPQLLIYRMSNLNSGVPDRFSGSGSGTEFTLTISSLEPEDFAVYYCMQHLEYPITFGAGTKLEIKRTVAAPSVFIFPPSDEQLKSGTASVVCLLNNFYPREAKVQWKVDNALQSGNSQESVTEQDSKDSTYSLSSTLTLSKADYEKHKVYACEVTHQGLSSPVTKSFNRGEC
chain: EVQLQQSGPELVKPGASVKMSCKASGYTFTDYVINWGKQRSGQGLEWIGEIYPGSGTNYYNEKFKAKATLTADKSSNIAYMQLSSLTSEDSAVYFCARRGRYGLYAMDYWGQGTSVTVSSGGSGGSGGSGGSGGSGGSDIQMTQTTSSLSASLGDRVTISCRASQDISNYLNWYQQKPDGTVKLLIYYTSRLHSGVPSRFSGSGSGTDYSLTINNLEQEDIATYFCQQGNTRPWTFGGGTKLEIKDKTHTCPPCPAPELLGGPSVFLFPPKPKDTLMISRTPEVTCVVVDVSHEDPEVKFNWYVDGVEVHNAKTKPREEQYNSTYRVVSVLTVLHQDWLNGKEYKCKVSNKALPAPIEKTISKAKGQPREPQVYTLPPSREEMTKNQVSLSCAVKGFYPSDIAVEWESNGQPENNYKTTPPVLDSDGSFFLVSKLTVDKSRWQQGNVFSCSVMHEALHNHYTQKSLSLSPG
notes: CD19, wt Fc, NKp46(NKp46-1)

binding result [1]: binds
B5: 2Fab-1scFv-AFc-2 (bispecific antibody, human IgG1, kappa)
heavy: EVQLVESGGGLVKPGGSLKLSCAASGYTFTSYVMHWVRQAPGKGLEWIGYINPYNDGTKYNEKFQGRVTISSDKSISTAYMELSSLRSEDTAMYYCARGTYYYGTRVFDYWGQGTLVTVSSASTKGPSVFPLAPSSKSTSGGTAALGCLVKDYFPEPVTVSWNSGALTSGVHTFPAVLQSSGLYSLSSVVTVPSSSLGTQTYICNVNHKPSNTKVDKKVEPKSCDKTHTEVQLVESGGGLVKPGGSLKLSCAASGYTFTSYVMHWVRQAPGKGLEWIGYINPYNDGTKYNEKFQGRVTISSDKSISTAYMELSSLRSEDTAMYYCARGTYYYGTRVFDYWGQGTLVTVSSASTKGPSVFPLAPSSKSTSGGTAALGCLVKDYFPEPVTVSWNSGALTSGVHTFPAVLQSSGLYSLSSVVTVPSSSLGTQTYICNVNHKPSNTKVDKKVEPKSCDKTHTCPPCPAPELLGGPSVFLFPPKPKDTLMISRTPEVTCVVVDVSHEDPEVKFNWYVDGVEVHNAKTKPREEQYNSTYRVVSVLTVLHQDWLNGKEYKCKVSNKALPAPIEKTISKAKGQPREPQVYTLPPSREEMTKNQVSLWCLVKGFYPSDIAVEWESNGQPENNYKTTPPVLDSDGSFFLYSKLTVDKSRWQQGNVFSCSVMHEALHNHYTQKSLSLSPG
light: DIVMTQSPATLSLSPGERATLSCRSSKSLQNVNGNTYLYWFQQKPGQSPQLLIYRMSNLNSGVPDRFSGSGSGTEFTLTISSLEPEDFAVYYCMQHLEYPITFGAGTKLEIKRTVAAPSVFIFPPSDEQLKSGTASVVCLLNNFYPREAKVQWKVDNALQSGNSQESVTEQDSKDSTYSLSSTLTLSKADYEKHKVYACEVTHQGLSSPVTKSFNRGEC
chain: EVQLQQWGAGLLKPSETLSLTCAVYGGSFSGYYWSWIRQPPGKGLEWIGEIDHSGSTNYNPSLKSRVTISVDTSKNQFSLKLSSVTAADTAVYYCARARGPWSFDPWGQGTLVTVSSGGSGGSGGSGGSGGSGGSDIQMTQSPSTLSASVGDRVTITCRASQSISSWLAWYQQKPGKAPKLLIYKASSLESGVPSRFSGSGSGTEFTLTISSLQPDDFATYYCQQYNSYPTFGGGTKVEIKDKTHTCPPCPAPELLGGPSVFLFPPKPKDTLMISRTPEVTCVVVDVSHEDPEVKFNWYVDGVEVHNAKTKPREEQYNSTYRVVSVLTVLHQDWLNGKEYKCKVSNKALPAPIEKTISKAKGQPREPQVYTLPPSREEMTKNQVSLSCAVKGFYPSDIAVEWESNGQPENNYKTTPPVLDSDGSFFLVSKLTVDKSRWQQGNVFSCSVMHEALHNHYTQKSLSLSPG
notes: CD19, wt Fc, NKG2D(ADI-27743)

Kd [5]: 22.7 nM
Kd [6]: 286 nM
B6: 1Fab-AFc-1Fab-1 (bispecific antibody, human IgG1, kappa)
chain 1: not shown
chain 2: EVQLVESGGGLVKPGGSLKLSCAASGYTFTSYVMHWVRQAPGKGLEWIGYINPYNDGTKYNEKFQGRVTISSDKSISTAYMELSSLRSEDTAMYYCARGTYYYGTRVFDYWGQGTLVTVSSASTKGPSVFPLAPSSKSTSGGTAALGCLVKDYFPEPVTVSWNSGALTSGVHTFPAVLQSSGLYSLSSVVTVPSSSLGTQTYICNVNHKPSNTKVDKKVEPKSCDKTHTCPPCPAPELLGGPSVFLFPPKPKDTLMISRTPEVTCVVVDVSHEDPEVKFNWYVDGVEVHNAKTKPREEQYNSTYRVVSVLTVLHQDWLNGKEYKCKVSNKALPAPIEKTISKAKGQPREPQVYTLPPSREEMTKNQVSLSCAVKGFYPSDIAVEWESNGQPENNYKTTPPVLDSDGSFFLVSKLTVDKSRWQQGNVFSCSVMHEALHNHYTQKSLSLSPGSTGSQVQLQQSGPELVKPGASVKMSCKASGYTFTDYVINWGKQRSGQGLEWIGEIYPGSGTNYYNEKFKAKATLTADKSSNIAYMQLSSLTSEDSAVYFCARRGRYGLYAMDYWGQGTSVTVSSRTVAAPSVFIFPPSDEQLKSGTASVVCLLNNFYPREAKVQWKVDNALQSGNSQESVTEQDSKDSTYSLSSTLTLSKADYEKHKVYACEVTHQGLSSPVTKSFNRGEC
chain 3: DIQMTQTTSSLSASLGDRVTISCRASQDISNYLNWYQQKPDGTVKLLIYYTSRLHSGVPSRFSGSGSGTDYSLTINNLEQEDIATYFCQQGNTRPWTFGGGTKLEIKASTKGPSVFPLAPSSKSTSGGTAALGCLVKDYFPEPVTVSWNSGALTSGVHTFPAVLQSSGLYSLSSVVTVPSSSLGTQTYICNVNHKPSNTKVDKKVEPKSCDKTH
notes: CD19, wt Fc, NKp46(NKp46-1); also called ComparatorA_1

Kd [7]: 23.9 nM
Kd [8]: 48 nM
Kd [2]: 1150 nM
B7: 1Fab-AFc-1Fab-2 (bispecific antibody, human IgG1, kappa)
chain 1: not shown
chain 2: EVQLVESGGGLVKPGGSLKLSCAASGYTFTSYVMHWVRQAPGKGLEWIGYINPYNDGTKYNEKFQGRVTISSDKSISTAYMELSSLRSEDTAMYYCARGTYYYGTRVFDYWGQGTLVTVSSASTKGPSVFPLAPSSKSTSGGTAALGCLVKDYFPEPVTVSWNSGALTSGVHTFPAVLQSSGLYSLSSVVTVPSSSLGTQTYICNVNHKPSNTKVDKKVEPKSCDKTHTCPPCPAPELLGGPSVFLFPPKPKDTLMISRTPEVTCVVVDVSHEDPEVKFNWYVDGVEVHNAKTKPREEQYNSTYRVVSVLTVLHQDWLNGKEYKCKVSNKALPAPIEKTISKAKGQPREPQVYTLPPSREEMTKNQVSLSCAVKGFYPSDIAVEWESNGQPENNYKTTPPVLDSDGSFFLVSKLTVDKSRWQQGNVFSCSVMHEALHNHYTQKSLSLSPGSTGSEVQLQQSGPELVKPGASVKISCKTSGYTFTEYTMHWVKQSHGKSLEWIGGISPNIGGTSYNQKFKGKATLTVDKSSSTAYMELRSLTSEDSAVYYCARRGGSFDYWGQGTTLTVSSRTVAAPSVFIFPPSDEQLKSGTASVVCLLNNFYPREAKVQWKVDNALQSGNSQESVTEQDSKDSTYSLSSTLTLSKADYEKHKVYACEVTHQGLSSPVTKSFNRGEC
chain 3: DIVMTQSPATLSVTPGDRVSLSCRASQSISDYLHWYQQKSHESPRLLIKYASQSISGIPSRFSGSGSGSDFTLSINSVEPEDVGVYYCQNGHSFPLTFGAGTKLELKASTKGPSVFPLAPSSKSTSGGTAALGCLVKDYFPEPVTVSWNSGALTSGVHTFPAVLQSSGLYSLSSVVTVPSSSLGTQTYICNVNHKPSNTKVDKKVEPKSCDKTH
notes: CD19, wt Fc, NKp46(NKp46-3); also called ComparatorA_2
